Measured values reported in PMC3268813 (Scientific Reports, 2012).

T1: GST-tagged chicken CK2α kinase dead (K68A mutant) (chicken, UniProt P21868 1-391, K68A)
T1 sequence: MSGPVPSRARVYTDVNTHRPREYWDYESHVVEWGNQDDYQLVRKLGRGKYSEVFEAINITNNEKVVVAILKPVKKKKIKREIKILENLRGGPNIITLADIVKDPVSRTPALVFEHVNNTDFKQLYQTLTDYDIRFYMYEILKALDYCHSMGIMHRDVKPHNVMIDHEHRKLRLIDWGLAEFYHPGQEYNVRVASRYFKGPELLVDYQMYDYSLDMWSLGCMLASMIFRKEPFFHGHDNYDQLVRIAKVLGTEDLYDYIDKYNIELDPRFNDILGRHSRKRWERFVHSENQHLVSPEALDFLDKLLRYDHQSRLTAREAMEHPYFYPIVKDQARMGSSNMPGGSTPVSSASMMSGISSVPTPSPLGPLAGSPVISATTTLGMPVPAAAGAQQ

T2: GST-tagged chicken CK2α (chicken, UniProt P21868 1-391)
T2 sequence: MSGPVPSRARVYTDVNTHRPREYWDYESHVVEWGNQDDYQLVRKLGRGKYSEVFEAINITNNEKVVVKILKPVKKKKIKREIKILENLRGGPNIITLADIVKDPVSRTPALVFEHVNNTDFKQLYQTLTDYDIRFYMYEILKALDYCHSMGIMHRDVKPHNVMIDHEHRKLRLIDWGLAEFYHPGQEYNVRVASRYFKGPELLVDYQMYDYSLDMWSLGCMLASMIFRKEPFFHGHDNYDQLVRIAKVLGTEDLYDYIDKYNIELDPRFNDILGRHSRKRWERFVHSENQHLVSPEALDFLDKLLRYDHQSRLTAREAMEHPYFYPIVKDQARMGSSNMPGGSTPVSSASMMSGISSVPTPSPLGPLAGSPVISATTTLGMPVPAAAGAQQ


How the values were obtained:
SEC = target: the molecule itself; assay: SEC
[1] = target: T1, GST-tagged chicken CK2α kinase dead …; assay: pull-down
GST-tagged chicken CK2α = target: T2, GST-tagged chicken CK2α; assay: pull-down

binding result [1]	binding result (GST-tagged chicken CK2α)	Binder	stoichiometry N (SEC)
binds	binds	CRN2 wild-type C-terminal polypeptide (aa300-474), His6-tagged (domain or fragment) PYVHYLNTFSSKEPQRGMGYMPKRGLDVNKCEIARFFKLHERKCEPIIMTVPRKSDLFQDDLYPDTAGPEAALEAEEWFEGKNADPILISLKHGYIPGKNRDLKVVKKNILDSKPTANKKCDLISIPKKTTDTASVQNEAKLDEILKEIKSIKDTICNQDERISKLEQQMAKIAA	3
–	–	CRN2 S463A phospho-resistant C-terminal polypeptide (aa300-474), His6-tagged (domain or fragment) PYVHYLNTFSSKEPQRGMGYMPKRGLDVNKCEIARFFKLHERKCEPIIMTVPRKSDLFQDDLYPDTAGPEAALEAEEWFEGKNADPILISLKHGYIPGKNRDLKVVKKNILDSKPTANKKCDLISIPKKTTDTASVQNEAKLDEILKEIKSIKDTICNQDERIAKLEQQMAKIAA	3
binds	binds	CRN2 S463D phosphomimetic C-terminal polypeptide (aa300-474), His6-tagged (domain or fragment) PYVHYLNTFSSKEPQRGMGYMPKRGLDVNKCEIARFFKLHERKCEPIIMTVPRKSDLFQDDLYPDTAGPEAALEAEEWFEGKNADPILISLKHGYIPGKNRDLKVVKKNILDSKPTANKKCDLISIPKKTTDTASVQNEAKLDEILKEIKSIKDTICNQDERIDKLEQQMAKIAA	3
